From the nanobody polyreactivity screen of Harvey et al. (2022)

Experiment: yeast display, Sf9 membrane polyspecificity reagent, FACS + sequencing; frameworks hold sequencing errors
Summary of the method: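 Genes from sorted yeast were amplified by colony PCR, read by MiSeq 2 × 250 sequencing and filtered on CDR length. These cells carried a synthetic nanobody library in Saccharomyces cerevisiae BJ5465 and were sorted by FACS into low and high (top ~1%) gates on anti-HA and streptavidin fluorescence. Polyreactivity is labelled according to the gate of origin.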
In the case of “QVQLVESGGGLVQAGGSLRLSCAASGSTFSLNAMGWYRQAPGKERELVAAISNVGDTYYADSVKGRFTISRDNAKNTVYLQMNSLKPEDTAVYYCAADGASYYYEYDYWGQGTQVTVSS”, the “polyreactivity (PSR sort gate)” value is reported as “low polyreactivity”.
In the case of “QVQLVESGGGLVQAGGSLRLSCAASGSTFSLYARGWYRQAPGKETELVAAITRGGNTYYADSVKGRFTISRDNAKNTVYLQMNSLKPEDTAVYYCNAYYYQFRGIRVSGGYWGQGTQVTVSS”, the “polyreactivity (PSR sort gate)” value is reported as “high polyreactivity”.
In the case of “QVQLVESGGGLVQAGGSLRLSCAASGSTFSLYDMGWYRQAPGKERELVAAISYSGGSTYYADSVKGRFTISRDNAKNTVYLQMNSLKPEDTAVFYCATRLFYPRFFYWGQGTQVTVSS”, the “polyreactivity (PSR sort gate)” value is reported as “high polyreactivity”.
With “QVQLVESGGGLVQAGGSLRLSCAASGSTFSNNAMGWYRQAPGNERELVAAISRSGGSTYYADSVKGRFTISRDNAKNTVYLQMNSLKPEDTAVYYCAVSPRYYRNGGAHLQYDYWGQGTHVTVSS” the “polyreactivity (PSR sort gate)” value was “high polyreactivity”.
In the case of “QVQLVESGGGLVQAGGSLRLSCAASGSTFSNNTMGWYRQAPGKERELVAAISWRGTRTYYADSVKGRFTISRDNAKNTVYLQMNSLKPEDTAVYYCNKLPTYPDYGYDSWGQGTQVTVSS”, the “polyreactivity (PSR sort gate)” value is reported as “high polyreactivity”.
With “QVQLVESGGGLVQAGGSLRLSCAASGSTFSPNAMGWYRQAPGKERELVAAISGSGGSTYYADSVKGRFTISRDNAKNTVYLQMNSLKPEDTAVYYCAADSYYDGDYWGQGTQVTVSS” the “polyreactivity (PSR sort gate)” value was “low polyreactivity”.
With “QVQLVESGGGLVQAGGSLRLSCAASGSTFSPNAMGWYRQAPGKERELVAAITWSGGSNTYADSVKGRFTISRDNAKNTVYLQMNSLKPEDTAVYYCAADTKYDNDYWGQGTQVTVSS” the “polyreactivity (PSR sort gate)” value was “low polyreactivity”.
For “QVQLVESGGGLVQAGGSLRLSCAASGSTFSPYAMGWYRQAPGKERELVAAITRSGSSTYYADSVKGRFTISRDNAKNTVYLQMNSLKPEDTAVYYCAADTGVTRSYRYTSWRIKYESWGQGTQVTVSS”, the “polyreactivity (PSR sort gate)” value was “low polyreactivity”.
For “QVQLVESGGGLVQAGGSLRLSCAASGSTFSRNAMGWYRQAPGKERELVAAITQSGGRTYYADSVKGRFTISRDNAKNTVYLQMNSLKPEDTAVYYCNARGRRSGYISGYDYWGQGTQVTVSS”, the “polyreactivity (PSR sort gate)” value was “high polyreactivity”.
For “QVQLVESGGGLVQAGGSLRLSCAASGSTFSRNAMGWYRQAPGKERELVAAITSGGRTYYADSVKGRFTISRDNAKNTVYLQMNSLKPEDTAVYYCAAVHRYPIHYDYWGQGTQVTVSS”, the “polyreactivity (PSR sort gate)” value was “low polyreactivity”.
For “QVQLVESGGGLVQAGGSLRLSCAASGSTFSRYAMGWYRPAPGKERELVAAISGTDDSTYYADSVKGRFTISRDNAKNTVYLQMNSLKPEDTAVYYCAARLVESRYGFGYEYYYWGQGTQVTVSS”, the “polyreactivity (PSR sort gate)” value was “low polyreactivity”.
For “QVQLVESGGGLVQAGGSLRLSCAASGSTFSRYAMGWYRPAPGKERELVATITRGGSTNYADSVKGRFTISRDNAQNTVYLQMTSLKPEDTAVYYCNKTARYVDGRGDYWGQGTQVTVSS”, the “polyreactivity (PSR sort gate)” value was “low polyreactivity”.
In the case of “QVQLVESGGGLVQAGGSLRLSCAASGSTFSRYAMGWYRQAPGKEREFVAAISRRAGGTYYADSVKGRFTISRDNAKNTVYLQMNSVKPEDTAVYYCAKVLPRDYIGRATYDYWGQGTQVTVSS”, the “polyreactivity (PSR sort gate)” value is reported as “high polyreactivity”.
With “QVQLVESGGGLVQAGGSLRLSCAASGSTFSRYAMGWYRQAPGKERELVAAISWSGASTYYADSVKGRFTISRDNAKNTVYLQMNRLKPEDTSVYYCAKVARQNWFRYYYDYWGQGTQVTVSS” the “polyreactivity (PSR sort gate)” value was “high polyreactivity”.
With “QVQLVESGGGLVQAGGSLRLSCAASGSTFSRYTMGWYRQAPGKEWELVAAISFRASSTYYADSVKGRFTISRDNAKNTVYLQMNSLKPEDTAVYYCAARNVFRYRWPIEYDYWGQGTQVTVSS” the “polyreactivity (PSR sort gate)” value was “low polyreactivity”.
For “QVQLVESGGGLVQAGGSLRLSCAASGSTFSSNAMGWYRQAPGKERELVAAIDRGGSTYYADSVKGRFTISRDNAKNTVYLQMNSLKPEDNAVYYCNAERETYDYWGQGTQVTVSS”, the “polyreactivity (PSR sort gate)” value was “low polyreactivity”.
For “QVQLVESGGGLVQAGGSLRLSCAASGSTFSSNAMGWYRQAPGKERELVAAINRTGNTYYADSVKGRFTISRDNEKNTVYLQMNSLKPEDTAVYYCNTDLNLYRGGGYWGQGTQVTVSS”, the “polyreactivity (PSR sort gate)” value was “low polyreactivity”.
For “QVQLVESGGGLVQAGGSLRLSCAASGSTFSSYAMGWYRQAPGKERELVAAINWSRTRTYYADSVKGRFTISRDNAKNTVYFQMNSVIPEDTAVYYCAAPGFGETADYDYWGHGTQVTVSS”, the “polyreactivity (PSR sort gate)” value was “low polyreactivity”.
In the case of “QVQLVESGGGLVQAGGSLRLSCAASGSTFSSYGMGWYRQAPGKERELVAAITSSGGSTYYADSVKGRFTISRDNAKNTVYLQMNSLKPEDTAVYYCAASDVIFWLYYYWGQGTQVTVSS”, the “polyreactivity (PSR sort gate)” value is reported as “low polyreactivity”.
For “QVQLVESGGGLVQAGGSLRLSCAASGSTFSSYVMGWYRQAPGKERELVAAISSIGGSTYYADSVKGRFTISRDNAKNTVYLQMNSLKPEDTAVYYCNADYVIYFGLYEYWGQGTQVTVSS”, the “polyreactivity (PSR sort gate)” value was “low polyreactivity”.
For “QVQLVESGGGLVQAGGSLRLSCAASGSTFSTNVMGWYRQAPGKERELVAAISTIGGSTYADSVKGRFTISRDNAKNTVYLQMNSLKPEDTAVYYCAAVFRVRRKTYGYWGQGTQVTVSS”, the “polyreactivity (PSR sort gate)” value was “high polyreactivity”.
For “QVQLVESGGGLVQAGGSLRLSCAASGSTFSTYAMGWYRQAPGKERELVAAISRTGGSTYYADSVKGRFTISRDNAKNTVYLQMNSLKPEDTAVYYCAADEDWEYWAPWYDYWGQGTQVTVSS”, the “polyreactivity (PSR sort gate)” value was “low polyreactivity”.
With “QVQLVESGGGLVQAGGSLRLSCAASGSTFSTYAMGWYRQAPGKERELVARITRSDTGTYYADSVKGRFTISRDNAKNTGYLQMNSLKPEDTAVYYCAADGWYDDSGWYYGYDYWGQGTQVTVSS” the “polyreactivity (PSR sort gate)” value was “low polyreactivity”.
For “QVQLVESGGGLVQAGGSLRLSCAASGSTFSTYVMGWYRQAPGKERELVATISYSSDSTYYADSVKVRFTISRDNAKNTVYLQMNSLKPEDSAVYYCNAARFTRRDYWGQGTQVTVSS”, the “polyreactivity (PSR sort gate)” value was “high polyreactivity”.
In the case of “QVQLVESGGGLVQAGGSLRLSCAASGSTFSVNAMGWYRQAPGKERELVAAITRSGGSTYYEDSVKGRFTISRENAKNTVYLQMNSLKPEDTAVYYCAAVIFPLGEYWGQGTQVTVSS”, the “polyreactivity (PSR sort gate)” value is reported as “low polyreactivity”.
For “QVQLVESGGGLVQAGGSLRLSCAASGSTFSVYAMGWYRQAPGKERELVAAITSGGSTNYADSVKGRFTISRDNAKNTVYLQMNSLKPEDTAVYYCAAYLYDTIYTSYREYDYWGQGTQVTVSS”, the “polyreactivity (PSR sort gate)” value was “low polyreactivity”.
For “QVQLVESGGGLVQAGGSLRLSCAASGSTFSVYAMGWYRQAPGTERELVAAITWSGGSTYYADSVKGRFTISRDNAKNTDYLQMNSLKPEDTAVYDCNAEGYYVWGITTYWLHQYGYWGQGTQVTVSS”, the “polyreactivity (PSR sort gate)” value was “low polyreactivity”.
In the case of “QVQLVESGGGLVQAGGSLRLSCAASGSTFSVYGMGWYRQAPGKERELVAAITRGSRTYYADSVKGRFTISRDNAKNTVYLQMNSLKPEDTAVYYSAAKWWWRSYWGQGTQVTVSS”, the “polyreactivity (PSR sort gate)” value is reported as “high polyreactivity”.
In the case of “QVQLVESGGGLVQAGGSLRLSCAASGSTFSVYTMGWYRQAPGKERELVAAISRSGGRTYYADSVKGRFTISRDNAKNTVYLQMNSVKPDDTAVYYCATGYYGTYDYWGQGTQVTVSS”, the “polyreactivity (PSR sort gate)” value is reported as “high polyreactivity”.
In the case of “QVQLVESGGGLVQAGGSLRLSCAASGSTFSWYAMGWYRPAPGKEMELVAAISSGGSTNYADSVKGRFTISRDNAKNTVYLQMNSLKPEDTAVFYCAAVWSRFLISYSTGWWFEYWGQGTQVTVSS”, the “polyreactivity (PSR sort gate)” value is reported as “low polyreactivity”.
In the case of “QVQLVESGGGLVQAGGSLRLSCAASGSTFSWYAMGWYRQAPGKERELVAAITSGGSTQYADSVKGRFTISRDNAKNTVYLQMNSLKPEDTAVYYCATRRYKWGVRYDYWGQGTQVTVSS”, the “polyreactivity (PSR sort gate)” value is reported as “high polyreactivity”.
In the case of “QVQLVESGGGLVQAGGSLRLSCAASGSTFSYNAKGWYRQAPGKERELANYADSVKGRFTISRDKAKNTVYLQMNSLKPEDTAVYYCAAVGFSYYVIRFDYWGQGTQVTVSS”, the “polyreactivity (PSR sort gate)” value is reported as “low polyreactivity”.
With “QVQLVESGGGLVQAGGSLRLSCAASGSTFSYNAMGCYRQAPGKESELVAAISRGDVSTYYADSVKGRFTISRDNAKNTVYLQMNSLKPEDTAVYYCAAYWYGSQYKWRYDYWGQGTQVTVSS” the “polyreactivity (PSR sort gate)” value was “low polyreactivity”.
In the case of “QVQLVESGGGLVQAGGSLRLSCAASGSTFSYNAMGWYRQAPGKEREFVAAITTSGVRTYYADSVKGRFTISRDNAKNTVYLQMNSLKPEDTAVYYCAARANYIFYGMDYWGQGTQVSVSS”, the “polyreactivity (PSR sort gate)” value is reported as “high polyreactivity”.
With “QVQLVESGGGLVQAGGSLRLSCAASGSTFSYNAMGWYRQAPGKERELVAAINLRGGNTYYADSVKGRFTISRDNAKNTVYLQMNSLKPEDTAVYYCARTRRHSQNFDYWGQGTQVIVSS” the “polyreactivity (PSR sort gate)” value was “high polyreactivity”.
In the case of “QVQLVESGGGLVQAGGSLRLSCAASGSTFSYNAMGWYRQAPGKERELVAAISNGGSTNYADSVKGRFTISRDNAKNTVSLQMNSLKPEDTAVYYCAAHTYSELSWLVVYPYDYWGQGTQVTVSS”, the “polyreactivity (PSR sort gate)” value is reported as “low polyreactivity”.
With “QVQLVESGGGLVQAGGSLRLSCAASGSTFSYNAMGWYRQAPGKERELVAAITSTGRTYYADSVKGRFTISRDNAKNTVYLQMNSLKPEDTAVYYCNKRARSEQYSYKYGYYYWGQGTQVTVSS” the “polyreactivity (PSR sort gate)” value was “high polyreactivity”.
In the case of “QVQLVESGGGLVQAGGSLRLSCAASGSTFSYNARGWYRQAPGKERELVAAITSGSSTNYADSVKGRFTISRDNAKNTVYLQMNSLKPEDTAVYYCAADGYQDKYYWLETWVGYWGQGTQVTVSS”, the “polyreactivity (PSR sort gate)” value is reported as “low polyreactivity”.
In the case of “QVQLVESGGGLVQAGGSLRLSCAASGSTFSYNDMGWYRQAPGKESELVADINVSVGRTYYADSVKGRFTISRDNAKNTVYLQMNSLTPEDTAVYYCNATLYTITSYVYAYDYWGQGTQVTVSS”, the “polyreactivity (PSR sort gate)” value is reported as “low polyreactivity”.
With “QVQLVESGGGLVQAGGSLRLSCAASGSTFSYYAMGWYRQAPGKEREFVAAISRSGGRTYYADSVKGRFKISRDNAKNTVYLQLNSLKPEDTAVYYCATVYYYDFSRTHPWPGDYWGQGTQVTVSS” the “polyreactivity (PSR sort gate)” value was “high polyreactivity”.
For “QVQLVESGGGLVQAGGSLRLSCAASGSTFSYYAMGWYRQAPGKERELVAAISRTAVSTYYADSVKGRFTISRDNAKNTVYLQMNSLKPEDTAVYYCAASHFHGYSLGYDYWGQGTQVTVSS”, the “polyreactivity (PSR sort gate)” value was “high polyreactivity”.
For “QVQLVESGGGLVQAGGSLRLSCAASGSTFSYYAMGWYRQAPGKERELVAAISSRGGSTYYADSVKGRFTISRDNAKNTVYLQMNSLKPEDTAVYYCNADHQFRSSVSGDHDYWGQGTQVTVSS”, the “polyreactivity (PSR sort gate)” value was “high polyreactivity”.
With “QVQLVESGGGLVQAGGSLRLSCAASGSTFSYYAMGWYRQAPGKERELVAAISSSGGSTYYADSVKGRFTISRDNAKNTVYLQMNSLKPEDTAVYYCNADSWRRRGRSRYDHWGQGTQVTVSS” the “polyreactivity (PSR sort gate)” value was “low polyreactivity”.
